The assay concerns the target CIP2A(1-560)-V5 (human, UniProt Q8TCG1-1 1-560). Description: pull-down.

B1: GST-NOCIVA (CIP2A 1-545 + 13 aa peptide) (natural protein)
chain: not shown
On to B1, for which the binding result was “binds”.

The values are drawn from publication doi:10.1101/2020.08.24.264606 (bioRxiv, 2020).
